Results taken from patent US12679878B2, “CRF2 receptor agonists and their use in therapy” (SANOFI, priority 2020, dated 2026).
Starred links: 1 amine or outer side, 2 acyl side, 3 side chain; linkers in the order of their positions; H or OH if unused. Non-standard residues stand in square brackets, D forms with d. Groups on a side chain read outwards from the residue. No end group written: not given here. *: point of attachment. C18 diacid = O=C(O)CCCCCCCCCCCCCCCCC(=O)*; γGlu = O=C(O)[C@H](CCC(=O)[*:2])N[*:1]; AEEA = NCCOCCOCC(=O)O; Aib = CC(C)(N)C(=O)O

biological target: human corticotropin-releasing factor 2α (CRF2 α receptor) (human), Q13324; experiment: cell-based or functional assay
Sequence (Q13324 20-411): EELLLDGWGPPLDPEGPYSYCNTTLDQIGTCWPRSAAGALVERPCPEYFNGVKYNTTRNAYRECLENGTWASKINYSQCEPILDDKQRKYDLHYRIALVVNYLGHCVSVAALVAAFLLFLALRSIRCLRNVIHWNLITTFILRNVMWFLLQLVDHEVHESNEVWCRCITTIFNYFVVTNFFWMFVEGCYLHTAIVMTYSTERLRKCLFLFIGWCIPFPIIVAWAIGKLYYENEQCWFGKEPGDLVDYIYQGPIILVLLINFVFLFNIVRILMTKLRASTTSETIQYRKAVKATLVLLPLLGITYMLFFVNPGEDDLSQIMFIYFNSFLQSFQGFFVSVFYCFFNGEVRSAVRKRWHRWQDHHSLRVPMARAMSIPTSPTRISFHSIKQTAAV

| EC50 [nM], 0% HSA [nM] | Binder |
| --- | --- |
| 3.15 | IVLSLDVPIKLK([AEEA-AEEA-γGlu-C18 diacid])K[Aib]LLEQERQKKQREQAETN[Aib]QILAQV-NH2 (N-terminus assumed; SMILES CC[C@H](C)[C@H](N)C(=O)N[C@H](C(=O)N[C@@H](CC(C)C)C(=O)N[C@@H](CO)C(=O)N[C@@H](CC(C)C)C(=O)N[C@@H](CC(=O)O)C(=O)N[C@H](C(=O)N1CCC[C@H]1C(=O)N[C@H](C(=O)N[C@@H](CCCCN)C(=O)N[C@@H](CC(C)C)C(=O)N[C@@H](CCCCNC(=O)COCCOCCNC(=O)COCCOCCNC(=O)CC[C@H](NC(=O)CCCCCCCCCCCCCCCCC(=O)O)C(=O)O)C(=O)N[C@@H](CCCCN)C(=O)NC(C)(C)C(=O)N[C@@H](CC(C)C)C(=O)N[C@@H](CC(C)C)C(=O)N[C@@H](CCC(=O)O)C(=O)N[C@@H](CCC(N)=O)C(=O)N[C@@H](CCC(=O)O)C(=O)N[C@@H](CCCNC(=N)N)C(=O)N[C@@H](CCC(N)=O)C(=O)N[C@@H](CCCCN)C(=O)N[C@@H](CCCCN)C(=O)N[C@@H](CCC(N)=O)C(=O)N[C@@H](CCCNC(=N)N)C(=O)N[C@@H](CCC(=O)O)C(=O)N[C@@H](CCC(N)=O)C(=O)N[C@@H](C)C(=O)N[C@@H](CCC(=O)O)C(=O)N[C@H](C(=O)N[C@@H](CC(N)=O)C(=O)NC(C)(C)C(=O)N[C@@H](CCC(N)=O)C(=O)N[C@H](C(=O)N[C@@H](CC(C)C)C(=O)N[C@@H](C)C(=O)N[C@@H](CCC(N)=O)C(=O)N[C@H](C(N)=O)C(C)C)[C@@H](C)CC)[C@@H](C)O)[C@@H](C)CC)C(C)C)C(C)C) [SEQ ID NO: 71] |
| 2.6 | IVLSLDVPIKLK([AEEA-AEEA-γGlu-C18 diacid])QILLEQERQKKQRQKAETN[Aib]QILAQV-NH2 (N-terminus assumed; SMILES CC[C@H](C)[C@H](N)C(=O)N[C@H](C(=O)N[C@@H](CC(C)C)C(=O)N[C@@H](CO)C(=O)N[C@@H](CC(C)C)C(=O)N[C@@H](CC(=O)O)C(=O)N[C@H](C(=O)N1CCC[C@H]1C(=O)N[C@H](C(=O)N[C@@H](CCCCN)C(=O)N[C@@H](CC(C)C)C(=O)N[C@@H](CCCCNC(=O)COCCOCCNC(=O)COCCOCCNC(=O)CC[C@H](NC(=O)CCCCCCCCCCCCCCCCC(=O)O)C(=O)O)C(=O)N[C@@H](CCC(N)=O)C(=O)N[C@H](C(=O)N[C@@H](CC(C)C)C(=O)N[C@@H](CC(C)C)C(=O)N[C@@H](CCC(=O)O)C(=O)N[C@@H](CCC(N)=O)C(=O)N[C@@H](CCC(=O)O)C(=O)N[C@@H](CCCNC(=N)N)C(=O)N[C@@H](CCC(N)=O)C(=O)N[C@@H](CCCCN)C(=O)N[C@@H](CCCCN)C(=O)N[C@@H](CCC(N)=O)C(=O)N[C@@H](CCCNC(=N)N)C(=O)N[C@@H](CCC(N)=O)C(=O)N[C@@H](CCCCN)C(=O)N[C@@H](C)C(=O)N[C@@H](CCC(=O)O)C(=O)N[C@H](C(=O)N[C@@H](CC(N)=O)C(=O)NC(C)(C)C(=O)N[C@@H](CCC(N)=O)C(=O)N[C@H](C(=O)N[C@@H](CC(C)C)C(=O)N[C@@H](C)C(=O)N[C@@H](CCC(N)=O)C(=O)N[C@H](C(N)=O)C(C)C)[C@@H](C)CC)[C@@H](C)O)[C@@H](C)CC)[C@@H](C)CC)C(C)C)C(C)C) [SEQ ID NO: 73] |

More lines, now with the values behind:

| Binder | EC50 [nM], 0% HSA [nM] |
| --- | --- |
| IVLSLDVPIKLK([AEEA-AEEA-γGlu-C18 diacid])QILLEQERQKKQREQAETN[Aib]QILERV-NH2 (N-terminus assumed; SMILES CC[C@H](C)[C@H](N)C(=O)N[C@H](C(=O)N[C@@H](CC(C)C)C(=O)N[C@@H](CO)C(=O)N[C@@H](CC(C)C)C(=O)N[C@@H](CC(=O)O)C(=O)N[C@H](C(=O)N1CCC[C@H]1C(=O)N[C@H](C(=O)N[C@@H](CCCCN)C(=O)N[C@@H](CC(C)C)C(=O)N[C@@H](CCCCNC(=O)COCCOCCNC(=O)COCCOCCNC(=O)CC[C@H](NC(=O)CCCCCCCCCCCCCCCCC(=O)O)C(=O)O)C(=O)N[C@@H](CCC(N)=O)C(=O)N[C@H](C(=O)N[C@@H](CC(C)C)C(=O)N[C@@H](CC(C)C)C(=O)N[C@@H](CCC(=O)O)C(=O)N[C@@H](CCC(N)=O)C(=O)N[C@@H](CCC(=O)O)C(=O)N[C@@H](CCCNC(=N)N)C(=O)N[C@@H](CCC(N)=O)C(=O)N[C@@H](CCCCN)C(=O)N[C@@H](CCCCN)C(=O)N[C@@H](CCC(N)=O)C(=O)N[C@@H](CCCNC(=N)N)C(=O)N[C@@H](CCC(=O)O)C(=O)N[C@@H](CCC(N)=O)C(=O)N[C@@H](C)C(=O)N[C@@H](CCC(=O)O)C(=O)N[C@H](C(=O)N[C@@H](CC(N)=O)C(=O)NC(C)(C)C(=O)N[C@@H](CCC(N)=O)C(=O)N[C@H](C(=O)N[C@@H](CC(C)C)C(=O)N[C@@H](CCC(=O)O)C(=O)N[C@@H](CCCNC(=N)N)C(=O)N[C@H](C(N)=O)C(C)C)[C@@H](C)CC)[C@@H](C)O)[C@@H](C)CC)[C@@H](C)CC)C(C)C)C(C)C) [SEQ ID NO: 74] | 2.12 |
| IVLSLDVPIKLK([AEEA-AEEA-γGlu-C18 diacid])QILLEQERQKKQRQQAETN[Aib]QILAQV-NH2 (N-terminus assumed; SMILES CC[C@H](C)[C@H](N)C(=O)N[C@H](C(=O)N[C@@H](CC(C)C)C(=O)N[C@@H](CO)C(=O)N[C@@H](CC(C)C)C(=O)N[C@@H](CC(=O)O)C(=O)N[C@H](C(=O)N1CCC[C@H]1C(=O)N[C@H](C(=O)N[C@@H](CCCCN)C(=O)N[C@@H](CC(C)C)C(=O)N[C@@H](CCCCNC(=O)COCCOCCNC(=O)COCCOCCNC(=O)CC[C@H](NC(=O)CCCCCCCCCCCCCCCCC(=O)O)C(=O)O)C(=O)N[C@@H](CCC(N)=O)C(=O)N[C@H](C(=O)N[C@@H](CC(C)C)C(=O)N[C@@H](CC(C)C)C(=O)N[C@@H](CCC(=O)O)C(=O)N[C@@H](CCC(N)=O)C(=O)N[C@@H](CCC(=O)O)C(=O)N[C@@H](CCCNC(=N)N)C(=O)N[C@@H](CCC(N)=O)C(=O)N[C@@H](CCCCN)C(=O)N[C@@H](CCCCN)C(=O)N[C@@H](CCC(N)=O)C(=O)N[C@@H](CCCNC(=N)N)C(=O)N[C@@H](CCC(N)=O)C(=O)N[C@@H](CCC(N)=O)C(=O)N[C@@H](C)C(=O)N[C@@H](CCC(=O)O)C(=O)N[C@H](C(=O)N[C@@H](CC(N)=O)C(=O)NC(C)(C)C(=O)N[C@@H](CCC(N)=O)C(=O)N[C@H](C(=O)N[C@@H](CC(C)C)C(=O)N[C@@H](C)C(=O)N[C@@H](CCC(N)=O)C(=O)N[C@H](C(N)=O)C(C)C)[C@@H](C)CC)[C@@H](C)O)[C@@H](C)CC)[C@@H](C)CC)C(C)C)C(C)C) [SEQ ID NO: 72] | 0.65 |
